# According to the Human Domainome abundance scans (Beltran et al. 2025):
# ± gives the uncertainty stated by the source.
# B1: Dystrobrevin alpha, residues 235 to 294; numbered along this chain, Q9Y4J8 (parent)
# chain: ENVFHPVECSYCHSESMMGFRYRCQQCHNYQLCQDCFWRGHAGGSHSNQHQMKEYTSWKS
# Variants of: B1
# Test: abundance fitness (aPCA) (normalised: wild type 0, dead -1); higher = more abundant; growth selection in yeast, the domain comes from the species named
# Details: Homo sapiens
row,Variant,abundance fitness
1,ENVFHPVECSYCHSESMMGFRYRCQQCHNYQLCQDCFWRGHAGGSHSNQHQMIEYTSWKS [K53I],-0.111 ± 0.1
2,ENVFHPVECSYCHSESMMGFRYRCQQCHNYQLCQDCFWRGHAGGSHSNQHQMPEYTSWKS [K53P],-0.592 ± 0.13
3,ENVFHPVECSYCHSESMMGFRYRCQQCHNYQLCQDCFWRGHAGGSHSNQHQMGEYTSWKS [K53G],-0.248 ± 0.052
4,ENVFHPVECSYCHSESMMGFRYRCQQCHNYQLCQDCFWRGHAGGSHSNQHQMVEYTSWKS [K53V],0.137 ± 0.065
5,ENVFHPVECSYCHSESMMGFRYRCQQCHNYQLCQDCFWRGHAGGSHSNQHQMYEYTSWKS [K53Y],-0.262 ± 0.11
6,ENVFHPVECSYCHSESMMGFRYRCQQCHNYQLCQDCFWRGHAGGSHSNQHQMCEYTSWKS [K53C],-0.137 ± 0.068
7,ENVFHPVECSYCHSESMMGFRYRCQQCHNYQLCQDCFWRGHAGGSHSNQHQMLEYTSWKS [K53L],-0.108 ± 0.061
8,ENVFHPVECSYCHSESMMGFRYRCQQCHNYQLCQDCFWRGHAGGSHSNQHQMTEYTSWKS [K53T],-0.154 ± 0.085
9,ENVFHPVECSYCHSESMMGFRYRCQQCHNYQLCQDCFWRGHAGGSHSNQHQMREYTSWKS [K53R],-0.111 ± 0.053
10,ENVFHPVECSYCHSESMMGFRYRCQQCHNYQLCQDCFWRGHAGGSHSNQHQMQEYTSWKS [K53Q],0.026 ± 0.089
11,ENVFHPVECSYCHSESMMGFRYRCQQCHNYQLCQDCFWRGHAGGSHSNQHQMFEYTSWKS [K53F],-0.313 ± 0.097
12,ENVFHPVECSYCHSESMMGFRYRCQQCHNYQLCQDCFWRGHAGGSHSNQHQMMEYTSWKS [K53M],-0.108 ± 0.092
13,ENVFHPVECSYCHSESMMGFRYRCQQCHNYQLCQDCFWRGHAGGSHSNQHQMSEYTSWKS [K53S],-0.11 ± 0.07
14,ENVFHPVECSYCHSESMMGFRYRCQQCHNYQLCQDCFWRGHAGGSHSNQHQMWEYTSWKS [K53W],-0.459 ± 0.089
15,ENVFHPVECSYCHSESMMGFRYRCQQCHNYQLCQDCFWRGHAGGSHSNQHQMDEYTSWKS [K53D],-0.16 ± 0.12
16,ENVFHPVECSYCHSESMMGFRYRCQQCHNYQLCQDCFWRGHAGGSHSNQHQMAEYTSWKS [K53A],-0.135 ± 0.083
17,ENVFHPVECSYCHSESMMGFRYRCQQCHNYQLCQDCFWRGHAGGSHSNQHQMEEYTSWKS [K53E],-0.029 ± 0.078
18,ENVFHPVECSYCHSESMMGFRYRCQQCHNYQLCQDCFWRGHAGGSHSNQHQMHEYTSWKS [K53H],-0.167 ± 0.21
19,ENVFHPVECSYCHSESMMGFRYRCQQCHNYQLCQDCFWRGHAGGSHSNQHQLKEYTSWKS [M52L],-0.248 ± 0.072
20,ENVFHPVECSYCHSESMMGFRYRCQQCHNYQLCQDCFWRGHAGGSHSNQHQVKEYTSWKS [M52V],-0.025 ± 0.088
21,ENVFHPVECSYCHSESMMGFRYRCQQCHNYQLCQDCFWRGHAGGSHSNQHQWKEYTSWKS [M52W],-0.449 ± 0.099
22,ENVFHPVECSYCHSESMMGFRYRCQQCHNYQLCQDCFWRGHAGGSHSNQHQRKEYTSWKS [M52R],-0.792 ± 0.078
23,ENVFHPVECSYCHSESMMGFRYRCQQCHNYQLCQDCFWRGHAGGSHSNQHQDKEYTSWKS [M52D],-0.471 ± 0.12

row,Variant,abundance fitness
1,ENVFHPVECSYCHSESMMGFRYRCQQCHNYQLCQDCFWRGHAGGSHSNQHQNKEYTSWKS [M52N],-0.764 ± 0.27
2,ENVFHPVECSYCHSESMMGFRYRCQQCHNYQLCQDCFWRGHAGGSHSNQHQQKEYTSWKS [M52Q],-0.294 ± 0.14
3,ENVFHPVECSYCHSESMMGFRYRCQQCHNYQLCQDCFWRGHAGGSHSNQHQCKEYTSWKS [M52C],-0.194 ± 0.12
4,ENVFHPVECSYCHSESMMGFRYRCQQCHNYQLCQDCFWRGHAGGSHSNQHQFKEYTSWKS [M52F],-0.005 ± 0.096
5,ENVFHPVECSYCHSESMMGFRYRCQQCHNYQLCQDCFWRGHAGGSHSNQHQSKEYTSWKS [M52S],-0.628 ± 0.09
6,ENVFHPVECSYCHSESMMGFRYRCQQCHNYQLCQDCFWRGHAGGSHSNQHQIKEYTSWKS [M52I],-0.3 ± 0.1
7,ENVFHPVECSYCHSESMMGFRYRCQQCHNYQLCQDCFWRGHAGGSHSNQHQHKEYTSWKS [M52H],-0.87 ± 0.23
8,ENVFHPVECSYCHSESMMGFRYRCQQCHNYQLCQDCFWRGHAGGSHSNQHQYKEYTSWKS [M52Y],-0.18 ± 0.11
9,ENVFHPVECSYCHSESMMGFRYRCQQCHNYQLCQDCFWRGHAGGSHSNQHQGKEYTSWKS [M52G],-0.554 ± 0.071
10,ENVFHPVECSYCHSESMMGFRYRCQQCHNYQLCQDCFWRGHAGGSHSNQHQKKEYTSWKS [M52K],-0.62 ± 0.12
11,ENVFHPVECSYCHSESMMGFRYRCQQCHNYQLCQDCFWRGHAGGSHSNQHQPKEYTSWKS [M52P],-0.478 ± 0.094
12,ENVFHPVECSYCHSESMMGFRYRCQQCHNYQLCQDCFWRGHAGGSHSNQHQEKEYTSWKS [M52E],-0.567 ± 0.15
13,ENVFHPVECSYCHSESMMGFRYRCQQCHNYQLCQDCFWRGHAGGSHSNQHLMKEYTSWKS [Q51L],-0.153 ± 0.062
14,ENVFHPVECSYCHSESMMGFRYRCQQCHNYQLCQDCFWRGHAGGSHSNQHWMKEYTSWKS [Q51W],-0.517 ± 0.095
15,ENVFHPVECSYCHSESMMGFRYRCQQCHNYQLCQDCFWRGHAGGSHSNQHVMKEYTSWKS [Q51V],-0.117 ± 0.062
16,ENVFHPVECSYCHSESMMGFRYRCQQCHNYQLCQDCFWRGHAGGSHSNQHPMKEYTSWKS [Q51P],-0.091 ± 0.086
17,ENVFHPVECSYCHSESMMGFRYRCQQCHNYQLCQDCFWRGHAGGSHSNQHTMKEYTSWKS [Q51T],0.042 ± 0.059
18,ENVFHPVECSYCHSESMMGFRYRCQQCHNYQLCQDCFWRGHAGGSHSNQHKMKEYTSWKS [Q51K],0.046 ± 0.068
19,ENVFHPVECSYCHSESMMGFRYRCQQCHNYQLCQDCFWRGHAGGSHSNQHYMKEYTSWKS [Q51Y],0.077 ± 0.13
20,ENVFHPVECSYCHSESMMGFRYRCQQCHNYQLCQDCFWRGHAGGSHSNQHNMKEYTSWKS [Q51N],-0.095 ± 0.086
21,ENVFHPVECSYCHSESMMGFRYRCQQCHNYQLCQDCFWRGHAGGSHSNQHMMKEYTSWKS [Q51M],-0.334 ± 0.11
22,ENVFHPVECSYCHSESMMGFRYRCQQCHNYQLCQDCFWRGHAGGSHSNQHSMKEYTSWKS [Q51S],0.062 ± 0.06
